Our source for the stoichiometry N values is article PMC9668932.

The assay deals with heat shock protein HSP 90-beta, full length, His6-tagged (human) (UniProt P08238). The assay can be described thus: cryo-EM structure; ternary Hsp90-XAP2-AHR complex, co-expressed in Sf9 and co-purified, with indirubin at 5x molar excess; 20 mM Bis-Tris-HCl pH 7.0, 50 mM NaCl, 10 mM KCl, 10 mM MgCl2, 20 mM Na2MoO4, 2 mM BME; global map 2.85 Å, focused map 4.07 Å.

Sequence of heat shock protein HSP 90-beta, full length, His6-tagged, P08238 1-724 (natural protein; other documents disagree on this pair) (P08238 whole entry): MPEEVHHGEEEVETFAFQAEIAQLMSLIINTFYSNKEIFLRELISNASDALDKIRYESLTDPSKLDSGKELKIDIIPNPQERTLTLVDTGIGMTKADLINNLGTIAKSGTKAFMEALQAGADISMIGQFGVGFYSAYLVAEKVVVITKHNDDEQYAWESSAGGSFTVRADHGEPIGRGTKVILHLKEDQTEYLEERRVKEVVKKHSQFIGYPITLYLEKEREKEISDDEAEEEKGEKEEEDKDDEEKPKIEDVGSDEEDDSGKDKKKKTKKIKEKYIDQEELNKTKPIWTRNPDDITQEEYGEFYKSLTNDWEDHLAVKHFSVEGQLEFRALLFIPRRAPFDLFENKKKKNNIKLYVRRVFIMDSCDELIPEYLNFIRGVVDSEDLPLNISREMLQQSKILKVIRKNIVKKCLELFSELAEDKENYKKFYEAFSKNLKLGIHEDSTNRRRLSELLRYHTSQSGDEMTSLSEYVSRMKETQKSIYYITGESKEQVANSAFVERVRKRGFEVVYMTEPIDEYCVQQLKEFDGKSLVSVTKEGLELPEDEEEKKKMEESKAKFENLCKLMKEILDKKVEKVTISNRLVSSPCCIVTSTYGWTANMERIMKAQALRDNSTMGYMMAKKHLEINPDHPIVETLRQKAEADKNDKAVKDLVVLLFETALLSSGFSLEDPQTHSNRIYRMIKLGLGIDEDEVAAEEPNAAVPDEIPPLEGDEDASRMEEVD

For “heat shock protein HSP 90-beta, full length, His6-tagged, P08238 1-724 (natural protein; other documents disagree on this pair)”, the stoichiometry N (in general, a count of units in the complex or per binding partner) was determined as 2.
